Measurements taken from the supplement of paper PMC9170038.

Test system: MS2 coat protein
Test: apparent KD of MS2 coat protein; designed switch direction (-1 OFF switch, 1 ON switch): -1; higher = weaker reporter binding
Outline: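 For each design, the apparent KD is the median over clusters of curves fitted to normalised cluster fluorescence. Clusters held RNA switches with common flanks, transcribed on Illumina chips by stalled E. coli RNA polymerase. These were titrated with SNAP-549-labelled MS2 coat protein, doubling from 0.7 or 1.5 nM to 3 µM, without input, with 200 uM small-molecule ligand, or with an oligonucleotide input.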

[1] = Eterna round: R95, input ligand: FMN 200 uM
[2] = Eterna round: R95, input ligand: microRNA oligo, concentration not stated
[3] = Eterna round: R95, input ligand: none
[4] = input ligand: microRNA oligo, concentration not stated

Sequence | apparent KD of MS2 coat protein (input ligand: FMN 200 uM) [nM] | apparent KD of MS2 coat protein (input ligand: none) [nM] | other results
GGAAGUAGAAACCGAUCCUACAUGAGGAUCACCCAUGUAGCAAGACGUGCACGCGAAGCUCGUCAGACUACCAGAAU [salish99_TOv1_r3_010] (puzzle: Sensor v3, turn-off variant 1) |  |  | apparent KD of MS2 coat protein [1]: 341 nM; apparent KD of MS2 coat protein [2]: 268 nM; apparent KD of MS2 coat protein [3]: 286 nM
GGACAUAAAGUCAGGAUAUUAAGGCGACCACGCGAUGAGAAGGGACAUGAGGAUCACCCAUGUGAUUCUCAUCA [Ingebive] (Eterna round: R97, puzzle: Brourd's mod of Exclusion 4) | 74.1 | 72.6 | 
GGACGGAAAGUGAGGAUAUGCUCUACCUCGGUAGAGCAGAAGGCACAUGAGGAUCACCCAUGUGAAAACUGUUC [Omei Ex4B B30] (Eterna round: R97, puzzle: Brourd's mod of Exclusion 4) | 27.9 | 15.2 | 
GGACGGUUAGUCAGGAUAUGCUCUACCUCGGUAGAGCAGAAGGGACAUGAGGAUCACCCAUGUGAAAACUGUUC [Omei Ex4B B37] (Eterna round: R97, puzzle: Brourd's mod of Exclusion 4) | 30.2 | 24.9 | 
GGAGAGAGAGGAUAUGGAGGUUGGAACAUGAGGAUCACCCAUGUUAAACCUCAUGACCGACUAGAAGGCUCAGUCC [AK-MS2ROC-r4-exclusion5-9.1] (Eterna round: R97, puzzle: Exclusion 5) | 17.8 | 18.9 | 
GGAGGAAGAGAGGAUAUGCGCGCAAGGAGCUUAGCAGAAGGUUCAACAUGAGGAUCACCCAUGUAUGAUCCUCA [AK-MS2ROC-r4-exclusion6-5] (Eterna round: R97, puzzle: Exclusion 6) | 341 | 318 | 
GGAUAAAAGUGAGGAUAUGAGGAGAGAGAGAGAUCAGAAGGCACACAUGAGGAUCACCCAUGUGAGUUCUCGAUAAGAAACACG [Prohibition 55 - Jieux - Exclusion NG 1] (Eterna round: R96, puzzle: Exclusion NG 1) | 14.3 | 15.9 | apparent KD of MS2 coat protein [4]: 13.2 nM
GGAUCACGAGGAUAUCGAUUUUAGUACAUGAGGAUCACCCAUGUUGUCCAGGUCUCGAUUCGAGAAGGCGUGAUUC [LRO-Ex5-05] (puzzle: Exclusion 5) |  |  | apparent KD of MS2 coat protein [2]: 34.5 nM
GGAUCGAAUGUGAGGAUAUGCUGGUCCUUGGAUCAGCAGAAGGCACAUGAGGAUCACCCAUGUGGUUCCGAUCC (Eterna round: R97, puzzle: Brourd's mod of Exclusion 4) | 161 | 876 | 
GGAUCGAGUGUGAGGAUAUACCUAUGGAAACAUAGGUAGAAGGCACAUGAGGAUCACCCAUGUUCCAACGGUCC [Mat - Exclusion 4 - Eli Mod - D11] (Eterna round: R97, puzzle: Brourd's mod of Exclusion 4) | 715 | 90.6 | 
GGAUCGAGUGUGAGGAUAUGCAGGUCCUUGGAUCUGCAGAAGGCACAUGAGGAUCACCCAUGUGAUCAAGAUCC [Mat - Exclusion 4 - Eli Mod - D47] (Eterna round: R97, puzzle: Brourd's mod of Exclusion 4) | 36.6 | 777 | 
GGAUCGAGUGUGAGGAUAUGCUGGUCCUUGGAUCAGCAGAAGGCACAUGAGGAUCACCCAUGUGAUACCGAUCC [Eli bmx4 4.67] (Eterna round: R97, puzzle: Brourd's mod of Exclusion 4) | 736 | 71 | 
GGAUCGUAUGUCAGGAUAUACCACUGGAUACAGUGGUAGAAGGGACAUGAGGAUCACCCAUGUCUUAUCGAUCC [Fiskers BMX 4 - 52] (puzzle: Brourd's mod of Exclusion 4) |  |  | apparent KD of MS2 coat protein [2]: 14.3 nM
GGCACACAUGAGGAUCACCCAUGUGAGGAUAUGUUAGUUUCGGCCAAAGCCGAAAUUAACAGAAGGCACAUGCC [JR_Exclusion1_Sub021] (puzzle: Exclusion 1) |  |  | apparent KD of MS2 coat protein [2]: 13.3 nM
GGCAGCUCAGGAUAUAGUUAAAACGACAUGAGGAUCACCCAUGUGACUGAUAUGCGGCGCCUAGAAGGGAGGUGCC [Xeusisso] (puzzle: Exclusion 5) |  |  | apparent KD of MS2 coat protein [2]: 14.6 nM
GGCAUCGGAGGAUAUACUUAUGGUGAUGCCCGAAGCUUUCUACUUGAGGAUCACCCAAGUAGAAGGCCGAUGCC [jl-ex2.4.79 ViennaUCT mod] (Eterna round: R97, puzzle: Exclusion 2) | 11.2 | 12.7 | 
GGCAUGUAAGGAUAUGCCACGCAGUCCUUUGGGCUGCGUAAGCAGAAGGUACAUGAGGAUCACCCAUGUGAUAA [jl-ex4-4.56 ViennaUCT mod] (Eterna round: R97, puzzle: Exclusion 4) | 865 | 591 | 
GGCCCGGGAGGAUAUACAUGAGGAUCACCCAUGUUGAGCUUGAGGAUCUUCGAGUUCGGUAGAAGGCCCGGGCC [-35.1, -32.9 kcal, 22% A, 1, 0] (Eterna round: R97, puzzle: Exclusion 3) | 201 | 27.2 | 
GGCCCUAGGGUCAGAUGCACAAGCUUUUUGCUCGUUUUAACAUGAGGAUCACCCAUGUCUAGUGGAUCUGAUCGGGU [Indiso] (puzzle: Sensor v3, turn-off variant 2) |  |  | apparent KD of MS2 coat protein [1]: 18.2 nM; apparent KD of MS2 coat protein [2]: 48.7 nM; apparent KD of MS2 coat protein [3]: 17.4 nM
GGCCGUAAUAAGGAUAUCACUAGCGAUAGCUAGUGAGAAGGUAUUACAUGAGGAUCACCCAUGUGAUCAGGCCA [E6/3-B3] (Eterna round: R97, puzzle: Exclusion 6) | 1180 | 176 | 
GGCGACCUAGGAUAUACAUGAGGAUCACCCAUGUUUAUCUAAUAGAUGAAGACGGGUUGUAGAAGGAGGAAAAU [Geriin] (puzzle: Exclusion 3) |  |  | apparent KD of MS2 coat protein [2]: 13.1 nM
GGGAAGGGAGGAUAUGAGGGAGAGAACAUGAGGAUCACCCAUGUGAGACCUCAGGAUCGAUCAGAAGGCCCGAUCC [AK-MS2ROC-r4-exclusion5-14] (Eterna round: R97, puzzle: Exclusion 5) | 677 | 383 | 
GGGACCCUUGUAGGAUAUAGAACCGCAGGAGGUCUAGAAGGGCACUGGUCGCCGUGGACAUGAGGAUCACCCAUGUGUUUGCCC [Eternabot solution 36] (Eterna round: R96, puzzle: Exclusion NG 1) | 55.2 | 52.4 | apparent KD of MS2 coat protein [4]: 40.2 nM
GGGAGGGAUGCAGGAUAUGCGAGGGAGGGAGGAGUAGAAGGGCAUGAGGAUCACCCAUGUGACAUGAGGAUCACCCAUGUGGGA [Success - 29% A] (Eterna round: R96, puzzle: Exclusion NG 1) | 78 | 82 | apparent KD of MS2 coat protein [4]: 80.2 nM
GGGCCACAUGAGGAUCACCCAUGUGAGGAUAUCAUGCUUCGUAGUAAACUACGAAGUGUGAGAAGGCACAAUGG [Omei Ex1 C9] (Eterna round: R97, puzzle: Exclusion 1) | 444 | 143 | 
GGGCCACAUGAGGAUCACCCAUGUUAGGAUAUUUGUUCGGUGCUAUGAAUUCAAGGCUAGAGAAGGAACAGGGA [Eternabot (L1) Solution 46] (Eterna round: R97, puzzle: Exclusion 1) | 22.4 | 23 | 
